Laboratory results from publication doi:10.1101/2025.10.25.684504.

Experiments:
Assay in all cases: cryo-EM structure
[1] = target: Actinomyces procaprae Csm6 (ApCsm6), wild type (Actinomyces procaprae)
[2] = target: ApCsm6 H369A (Actinomyces procaprae)
[3] = target: ApCsm6 R723A (Actinomyces procaprae)

Actinomyces procaprae Csm6 (ApCsm6), wild type (enzyme)
stoichiometry N [1]: 4

ApCsm6 H369A (enzyme)
stoichiometry N [2]: 4

ApCsm6 R723A (enzyme)
stoichiometry N [3]: 4
